System: MS2 coat protein
Test: apparent KD of MS2 coat protein; designed switch direction (-1 OFF switch, 1 ON switch): 1; higher = weaker reporter binding
Method in brief: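 An oligonucleotide input, 200 uM small-molecule ligand, or no input was present during titration of SNAP-549-labelled MS2 coat protein, which was doubled from 0.7 or 1.5 nM to 3 µM. Designed RNA switches had been transcribed on Illumina chips by stalled E. coli RNA polymerase. Apparent KD per design is the median over clusters of curves fitted to normalised cluster fluorescence.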

[1] = Eterna round: R95, input ligand: FMN 200 uM
[2] = Eterna round: R95, input ligand: microRNA oligo, concentration not stated
[3] = Eterna round: R95, input ligand: none
[4] = input ligand: microRNA oligo, concentration not stated

| Sequence | apparent KD of MS2 coat protein [1] [nM] | apparent KD of MS2 coat protein [2] [nM] | apparent KD of MS2 coat protein [3] [nM] | apparent KD of MS2 coat protein [4] [nM] | apparent KD of MS2 coat protein (input ligand: FMN 200 uM) [nM] | apparent KD of MS2 coat protein (input ligand: none) [nM] |
| --- | --- | --- | --- | --- | --- | --- |
| AACAAUCUAUCUGAGGAUAUCAUGAAAUAAACAUGAGGAUCACCCAUGUGCAGGUAAACUGCAUAUGAGAAGGCAGAUAGAUUGA [salish99_ss2_r3_040] (puzzle: Same State 2) | 60.1 | 314 | 571 |  |  |  |
| GCUCUACAUGAGGAUCACCCAUGUCCAUCCGCACGAGGAUAUGCAUGGGCGAAAGCUGGUGCAGAAGGCGUGGGAC [Tr3Pin] (puzzle: Same State 1) |  | 409 |  |  |  |  |
| GUGGUCAGACAUGAGGAUCACCCAUGUGGAAUAAAUAACACACAGGAUAUCGAAUAUAAAAUAUACGAGAAGGGUGGAUUGGUG (Eterna round: R96, puzzle: Same State NG 3) |  |  |  | 334 |  |  |
| UCGGGCGUACUUGCAGACAUGAGGAUCACCCAUGUAAAUGGGAAGGAUAUGGUACCGUUUCGGUACCAGAAGGUCCUGGGUGCU [salish99_SSNG3_r04_308] (Eterna round: R96, puzzle: Same State NG 3) |  |  |  | 281 | 810 | 1960 |
| AUAGUUUCCGAAGGAUAUGAUGAGGAUCACCCAUCAGAAGGUUGGCUAUUGGGCGGACAUGAGGAUCACCCAUGUCUUUCUGUU (Eterna round: R96, puzzle: Same State NG 1) |  |  |  | 10.7 | 12.7 | 18 |
| CUACGCGCCGCAGGAUAUGCCGACCCGUGUUGAGCAGAAGGGCGCAACAUGAGGAUCACCCAUGUUGAAAGAGCGCAAAAUUAA [Zaesre] (Eterna round: R96, puzzle: Same State NG 1) |  |  |  | 12.5 | 11.1 | 16 |
| UGCUACUGGGUAGGAUAUUUAGGAUAUGGGAAAGACUAAGUCUGUAGGUCACCUAACCCAGAAGGAGAGAAGGACCAUUCAGCU [pwkr ssNG2 2FMN + F9.33] (Eterna round: R96, puzzle: Same State NG 2) |  |  |  | 55.3 | 29.5 | 32.7 |
| UCAGUCAUGUAAGGAUAUGCAGCCGAAACGGCUGCAGAAGGUACUAUAAUUACAUGAGGAUCACCCAUGUUAUAAAAUUUAUAU [Mat - Same State NG 1 - JL mod - D64] (Eterna round: R96, puzzle: Same State NG 1) |  |  |  | 44.9 | 24.4 | 58.8 |
| CUAACAACAAGUUGCAGUGUUCGUCUUUAACAUGAGGAUCACCCAUGUAAUAGCCCGGUAGAAGCGCUCGGGCCACC [Anaesrain] (puzzle: Sensor for hsa-mir-208a) | 32.8 | 38.1 | 36.3 |  |  |  |
| GCUAGGAAAUAAGCCAACAUGAGGAUCACCCAUGUAUGUUGGUAGGAUAUCGUUUGCAAAGCAAACGAGAAGGGCUAACCUAGC [Mat - Same State NG 3 - JL Mod - D70] (Eterna round: R96, puzzle: Same State NG 3) |  |  |  | 70.6 | 72.2 | 85.9 |
| UGGCUCAGACGAGGAUAUAUGUCUCGAGCUUCGGCUCGAGACAUGAGGAUCACCCAUGUAAUAACAUAGAAGGCGUCUGAGCCA [SSNG2/1-A2] (Eterna round: R96, puzzle: Same State NG 2) |  |  |  | 25.2 | 22.1 | 37.2 |
| AGUCCAGCCUGAGCUGGACGAAAGCAUGUACAUGAGGAUCACCCAUGUCAUGUACAAGCUUUUUGCUCGUCUUAAAA [Zipper 46 - 4] (puzzle: Sensor for hsa-mir-208a) | 482 | 15 | 532 |  |  |  |
| GGUAGGUUACUACCAAACAUGAGGAUCACCCAUGUAAGUGGGAAGGAUAUGGUACCGUUUCGGUACCAGAAGGUCCAUAUAGUA [JL Fiskers NG3ss - 2 mod 11] (Eterna round: R96, puzzle: Same State NG 3) |  |  |  | 658 | 232 | 1530 |
| CGGCGCUGUCGAGAGGAUAUGCGGUGAUGGACAUGAGGAUCACCCAUGUUAGCGAUAGCAUCACGGUAGAAGGCUCCACAGCCGU [Soteed Omei mod 13] (puzzle: Same State 2) |  | 23 |  |  |  |  |
| GGAGCCGGCACCGAGGAUAUUCAUAUUAAAACAUGAGGAUCACCCAUGUAGAGCAGAAGCUCUUGGGAGAAGGCGGAUCGGCUCG [Xeonanis - 27] (puzzle: Same State 2) | 28.4 | 306 | 549 |  |  |  |
| AGCGCGGUCUCGCAGGAUAUCCACAUUCCUACAUGAGGAUCACCCAUGUCGCUGCAGGAUAUUAGGGAGAAGGGUGAUGCCGCGG [Quesed] (puzzle: Same State 2) | 22.7 | 42.7 | 48.4 |  |  |  |
| AGGAAACAUGAGGAUCACCCAUGUAAGAUAUACACAGGAUAUGCGAAAAGAAACAAAGAAGCAGAAGGGUGGAAAA [75%, Ex sub1, 11] (Eterna round: R96, puzzle: Same State 1) |  |  |  | 22.7 | 16.6 | 43.5 |
| GGAGGGAGGGCGCAGGAUAUCGAUAAUGACACAUGAGGAUCACCCAUGUUUGGUAUUAGAAGGAACGAGAAGGGUGAGAGGAGGG [red_knee_arm] (puzzle: Same State 2) | 36.1 | 35.1 | 53.2 |  |  |  |
| GGACCCUUCGGAGGAUAUUCUCAGUAACAGUAAGAAGAAGGCCGUAAGUCAUACGCGCGUUACAUGAGGAUCACCCAUGUGUGG [Eternabot solution 47] (Eterna round: R96, puzzle: Same State NG 1) |  |  |  | 150 | 149 | 333 |
| GUUACAUGAGGAUCACCCAUGUAUGUGUGGGAGUAAGUGUCUUAGGAUAUCUAUCAUUUAAUGUAAGAGAAGGAAGAUUGUUGU [JMF's solution 97] (Eterna round: R96, puzzle: Same State NG 3) |  |  |  | 106 | 122 | 118 |
| CCAUAACAGUGAGGAUAUCGUUGCGAUAAGUGACGAGAAGGCAUUCAUGUGAAAUAAACAUACAUGAGGAUCACCCAUGUUGUA [Omei SS(NG)1 B] (Eterna round: R96, puzzle: Same State NG 1) |  |  |  | 17.1 | 18.2 | 20.6 |
| UCUAGACAUGAGGAUCACCCAUGUCGAUAUGACACAGGAUAUCGGUACUCAUAGAGUACGCGAGAAGGGUGACUUC [Same State 1 - Mod of Vinnie Gere v.3] (puzzle: Same State 1) | 112 | 115 | 166 |  |  |  |
| GGACGUCAUCUCACUGAUUAACAUGAGGAUCACCCAUGUUCACAGGAUAUGAGUCCGAUUAGGACUCAGAAGGGUGAGACGUCC [Fiskers NG3ss - 47] (Eterna round: R96, puzzle: Same State NG 3) |  |  |  | 16.8 | 19.3 | 19.3 |
| AUAUCCUUUUUAUACAUGAGGAUCACCCAUGUUUUUCUUACGUAGGAUAUCGUUGUUUUUUUUUACGAGAAGGACGUAGAAUGU [JR_SSND3_Sub063] (Eterna round: R96, puzzle: Same State NG 3) |  |  |  | 23.5 |  |  |
| GGCAUGCGGCGUACCGUAUGCUGGUAUGUACAUGAGGAUCACCCAUGUCAUGUACAGGCUUGUUGCUCGUCUUAUUG [JL-shm-2.41 JL mod] (puzzle: Sensor for hsa-mir-208a) | 137 | 34.3 | 158 |  |  |  |
| AACAAUCUAUCUGAGGAUAUCAUGAAAAAAACAUGAGGAUCACCCAUGUGCAGGAAAACUGCAUAUGAGAAGGCAGAUAGAUUGA [SS2: 1101] (Eterna round: R96, puzzle: Same State 2) |  |  |  | 490 |  |  |
| UGGCUGGUGCUAGGAUAUGCAUGAGGAAUCCUCGUAGAAGGAGCACGACAUGAGGAUCACCCAUGUAGCCGUCCGUAGACGGCU [salish99_SSNG1_r04_009] (Eterna round: R96, puzzle: Same State NG 1) |  |  |  | 26.3 | 98.7 | 91.8 |
| AUUGCUUACGCAGGAUAUGAUGCGAAAAUUGCGUCAGAAGGGUGAAGUAACUCAUUGCAACAGGACAUGAGGAUCACCCAUGUC [SameState NG1 #89] (Eterna round: R96, puzzle: Same State NG 1) |  |  |  | 250 | 105 | 681 |

From the supplement of paper PMC9170038
